PMC8228355, “SERS-Based Aptasensor for Rapid Quantitative Detection of SARS-CoV-2”

Biological target: RBD of SARS-CoV-2 spike protein (SARS-CoV-2, UniProt P0DTC2 319-541)
Assay: BLI; ka ([…]; kd ([…]; RBD 80-1200 nM; […]; BLI on streptavidin sensors, buffer and temperature not stated; […]
Conditions: protein: commercial; label: 5'-biotin

Binder	Kd
TTTGGGAGTGCTGGTCCAAGGGCGTTAATGGACA (structured_DNA) [Biotin-RBD-1C-sh]	330 nM
Biotin-RBD-1C (structured_DNA) DNA: CAGCACCGACCTTGTGCTTTGGGAGTGCTGGTCCAAGGGCGTTAATGGACA	13 nM
